Measured values taken from patent US20220112276A1 (Janssen / Centocor, published 2022).
Positions count from the first letter of the chain named. One block for each binder: values may come before it.

Biological target: T1, recombinant human pIgR (hpIgR) (human, UniProt P01833 19-638, limits assumed)
T1 construct: probably the ECD
Test: ELISA, periplasmic VHH, BSA subtracted
Method: Initial Library Screening: After each panning round showing enrichment, 94 individual clones were expressed and tested in an off-phage initial screen for specific binding to mpIgR or hpIgR (respectively depending on the antigen used). Screening of monoclones in an off-phage format was performed by transforming the phagemid pool into a non-amber-suppressor strain of E. coli and picking random colonies. The VHH proteins were recovered in the periplasmic fraction by performing osmotic shock. Periplasmic fractions containing His-tagged nanobodies were tested for binding to hpIgR or mpIgR. Bound nanobody was detected with a polyclonal anti-alpaca VHH domain antibody. Each clone was also tested for non-specific binding to BSA in parallel. The ELISA values obtained on BSA were subtracted from the ELISA values obtained on the respective pIgR antigen.
Repeat Testing of Positive Hits: The hits identified in the initial screen of the phage pools were re-tested for binding to either hpIgR or mpIgR. Periplasmic fractions were prepared again by performing osmotic shock. Periplasmic fractions containing His-tagged nanobodies were tested for binding to mpIgR. In this assay, bound nanobody was detected with an anti-VHH antibody. Each clone was also tested for non-specific binding to BSA in parallel. The ELISA values obtained on BSA were subtracted from the ELISA values obtained on the respective pIgR antigen.

T1 sequence (P01833 19-638 limits assumed): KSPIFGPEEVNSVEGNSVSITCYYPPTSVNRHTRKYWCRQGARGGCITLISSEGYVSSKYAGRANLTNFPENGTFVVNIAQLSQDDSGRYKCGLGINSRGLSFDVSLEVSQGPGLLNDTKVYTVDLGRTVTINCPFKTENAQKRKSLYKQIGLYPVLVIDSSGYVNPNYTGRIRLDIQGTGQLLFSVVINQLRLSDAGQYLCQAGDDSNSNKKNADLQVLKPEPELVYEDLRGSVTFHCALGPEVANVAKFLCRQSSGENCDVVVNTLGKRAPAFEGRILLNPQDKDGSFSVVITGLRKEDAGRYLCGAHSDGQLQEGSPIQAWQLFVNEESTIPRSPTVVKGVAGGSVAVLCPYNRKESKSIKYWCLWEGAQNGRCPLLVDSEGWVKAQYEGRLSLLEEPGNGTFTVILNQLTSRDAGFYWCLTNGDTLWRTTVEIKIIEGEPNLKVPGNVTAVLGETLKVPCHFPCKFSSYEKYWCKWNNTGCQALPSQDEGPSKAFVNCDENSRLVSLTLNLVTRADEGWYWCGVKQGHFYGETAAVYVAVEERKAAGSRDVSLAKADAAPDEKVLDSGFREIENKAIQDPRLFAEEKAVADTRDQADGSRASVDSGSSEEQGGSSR

B2: 03D01R3 His-tagged VHH (VHH)
VHH: EVQLVESGGGLVQPGGSLRLSCAASGFTFRTYYMGWFRQAPGKEREFVGVTRSSDDVTYYADSVKGRFTISRDNAKNTVYLQMSRLKPEDTAVYYCAAKPVPITRYSFPQIGEEYDYWGQGTLVTVSS
ELISA (OD): 1.84 OD

B3: 02B09R3 His-tagged VHH (VHH)
VHH: B2 VHH with Q39R, N77D
ELISA (OD): 1.13 OD

B4: 01C09R3 His-tagged VHH (VHH)
VHH: B2 VHH with P14A
ELISA (OD): 1.29 OD

B7: 03G05R3 His-tagged VHH (VHH)
VHH: EVQLVESGGGLVQAGDSLRLSCAASGRALSFNTYAMAWFRQAPGKEREFVASITYNGGSTYYADSVKGRFTVTRDNGKNTVTLRMNSLKPDDTAVYYCASAQYWRSGTSFPANYWGQGTQVTVSS
ELISA (OD): 1.92 OD

B8: 01D06R2 His-tagged VHH (VHH)
VHH: QVQLVESGGGLVQAGDSLRLSCAASGRTLSFDTYAMAWFRQAPGKEREFVASIDWNGVNTYYADSVKGRFTVTRDNTKNTVTLRMNSLKTDDTAVYYCAAAQYYRSGTSFPANSWGQGTQVTVSS
ELISA (OD): 0.5 OD

B10: 03G07R3 His-tagged VHH (VHH)
VHH: B7 VHH with A28T, N32D, T54D, Y61D, G77A, Q102R, W104Y, A112V
ELISA (OD): 1.92 OD

B13: 01C09R3LS His-tagged VHH (VHH)
VHH: EVQLVESGGGLVQAGGSLRLSCAASGRTINTYVMGWFRQAPGKEREFVARIDWSGSSTDYADSVKGRFTISRDNAKNTVYLQMNSLKPEDTAVYYCAGSAYYSGYVTHRDFGSWGQGTQVTVSS
ELISA (OD): 1.64 OD

B14: 01F11R2 His-tagged VHH (VHH)
VHH: B13 VHH with I29L, S57T
ELISA (OD): 0.62 OD

B15: 01C05R3LS His-tagged VHH (VHH)
VHH: B13 VHH with Q119L
ELISA (OD): 1.89 OD

B18: 01E09R3LS His-tagged VHH (VHH)
VHH: B13 VHH with I70T, S85G, Q119L
ELISA (OD): 1.97 OD

B21: 01B12R3LS His-tagged VHH (VHH)
VHH: B13 VHH with T31G, N77T
ELISA (OD): 2.17 OD

B22: 01G09R2 His-tagged VHH (VHH)
VHH: B13 VHH with V64A, Q119L
ELISA (OD): 2 OD

B23: 01D07R3LS His-tagged VHH (VHH)
VHH: B13 VHH with E1Q, Q119L
ELISA (OD): 2.07 OD

B24: 01A06R3LS His-tagged VHH (VHH)
VHH: EVQLVESGGGVVQAEDSLRLSCAASGLPFSSSRMGWFRQAPGKEREFVAAIGWSGRSTYKYYADSVKGRFTVSGDNAKKTLDLQMKDLKPEDTAVYYCAAHPDYYGDPRTSGAYRYWGQGTQVTVSS
ELISA (OD): 1.95 OD

B26: 01H05R3 His-tagged VHH (VHH)
VHH: QVQLVESGGGLVQAGGSLRLSCAASGRSLGFDTYGMAWFRQAPGKEREFVASIDWNGGSTYYADSMKGRFTISRDNAKNTVNLRMNSLKPDDTAVYYCAAARYYTSSTYFPANYWGQGTQVTVSS
ELISA (OD): 1.27 OD

B27: 03H05R3 His-tagged VHH (VHH)
VHH: QVQLVESGGGLVQAGGSLSLSCAASGRSLSFDTYAMSWFRQAPGKEREFVASIDWNGGSTSYADSMKGRFTISRDNAKNTVNLRIRSLKPDDTAVYFCASARYYIGGTYFPANYWGQGTQVTVSS
ELISA (OD): 0.46 OD

B29: 01D05R2LS His-tagged VHH (VHH)
VHH: EVQLVESGGGLVQTGGSLRLSCAASGRTFSPYAMGWFRQAPGKEREFVAAIRWSGATTYKYVGDSVQGRFTISRDAAGNTVYLQMNSVKPEDTAVYYCAADRVPKDISIDPRNPKDWDYWGKGTLVTVSS
ELISA (OD): 2.41 OD

B30: 01B06R2LS His-tagged VHH (VHH)
VHH: B29 VHH with E1Q
ELISA (OD): 1.9 OD

B31: 01H01R2LS His-tagged VHH (VHH)
VHH: B29 VHH with D64G, L125Q
ELISA (OD): 1.17 OD

B34: 01B02R2L His-tagged VHH (VHH)
VHH: EVQLVESGGGLVQAGGSLKLACAASGLTFSSYRMGWFRQAPGKEREFVAAIDWNGRGTYYRYYADSVKGRFTISRDNAKNTMCLQMNSLKPEDTAVYYSAIDSRTSIDPRTSGHYRYWGQGTLVTVSS
ELISA (OD): 1.94 OD

B35: 01B07R2L His-tagged VHH (VHH)
VHH: EVQLVESGGGLVQAGGSLRLSCAASGRTFSSDAVGWFRQAPGKEREFVAHIHWSGDFTTYYYYGDFVKGRFTISRGTAKNTVYLQMNSLKPEDTAVYYCAAPKGAIGDPRSTREYDYWGQGTLVTVSS
ELISA (OD): 0.67 OD

B38: 01D08R3 His-tagged VHH (VHH)
VHH: QVQLVESGGGLVQAGDSLRLSCAASGRTSSLYNMGWFRQAPGQEREFVAAIHWGGGRTYYADSVKGRFTISRDNAKNTVYLQMNSLEPGDTANYYCAARRAPELLDDYKQKPEEIGAYHYWGQGTQVTVSS
ELISA (OD): 2.11 OD

The next lines start with the values.

ELISA (OD): 2.12 OD
B1: 01B04R3L His-tagged VHH (VHH)
VHH: EVQLVESGGGLVQAGDSLRLSCAASGRTFTTYVMGWFRQAPGKEREFVATIAWSGSTNYKYYADSVKGRFTISRDNAKNTVYLRMNSLKPEDTAVYYCAASTVLTDPRRLNEYANWGQGTLVTVSS

ELISA (OD): 1.98 OD
B5: 01A02R3 His-tagged VHH (VHH)
VHH: EVQLVESGGGLVQSGGSLRLSCAASGRTFDQFTVGWFRQAPGKEREFVTAIRWSGSTTYRYYADSVKGRFTISRDNARNTVDLQMNSLKPEDSAVYYCAGQMSQWSDPRGDDYDSWGQGTLVTVSS

ELISA (OD): 1.97 OD
B6: 03F01R3 His-tagged VHH (VHH)
VHH: QVQLVESGGGLVQAGESLRLSCAASGDVFDIGTMAWYRQPPGKQRELVASITMGGSTDVADSAKGRFTISRDNAKNTVYLHMDSLKPEDTAVYYCNAQFFWPKRHDYWGQGTQVTVSS

ELISA (OD): 1.83 OD
B9: 01F04R3 His-tagged VHH (VHH)
VHH: B7 VHH with E1Q, K67R, N76S, Q120L

ELISA (OD): 2.33 OD
B11: 01C04R3 His-tagged VHH (VHH)
VHH: B7 VHH with E1Q, N79D, Q120L

ELISA (OD): 1.94 OD
B12: 01B08R2 His-tagged VHH (VHH)
VHH: EVQLVESGGRLVQAGGSLRLSCAASGLTRSDYAMGWFRQAPGKEREFVATLKWSEGSRFMYRAEDVKGRFTISSGAAKTTVWLDMDALNPEDTAVYYCAAGFNVGFVRRASEYNFWGQGTLVTVSS

ELISA (OD): 1.91 OD
B16: 01B10R3LS His-tagged VHH (VHH)
VHH: B13 VHH with E1Q, N30Y, T31G

ELISA (OD): 2.35 OD
B17: 01F03R3LS His-tagged VHH (VHH)
VHH: B13 VHH with T31G, K43E, N77I, Q119L

ELISA (OD): 1.96 OD
B19: 01G10R3LS His-tagged VHH (VHH)
VHH: B13 VHH with M34T

ELISA (OD): 0.99 OD
B20: 01H11R3LS His-tagged VHH (VHH)
VHH: B13 VHH with E1Q, T31G, N77T, M83T

ELISA (OD): 2.29 OD
B25: 01B07R3L His-tagged VHH (VHH)
VHH: B24 VHH with A40V, K60R, A63D, K79N, D87G, H101D, D103N, P108V, A113T, R115Q

ELISA (OD): 1.77 OD
B28: 03C10R3 His-tagged VHH (VHH)
VHH: B26 VHH with A14R, G35A, A37G, S59N, M66V, V95A, S107G, Q117R, Q120L

ELISA (OD): 2.07 OD
B32: 03D02R3 His-tagged VHH (VHH)
VHH: EVQLVESGGGLAQAGGSLRLSCTASGTISKIDVMAWYRQTPGNERELVARIFSNDVTHYVDSAKGRFTLSRAQDKNTVDLQMNSLEPDDAAVYYCNAQIWSDMRGRMDTYWGQGTLVTVSS

ELISA (OD): 2.16 OD
B33: 01B04R2 His-tagged VHH (VHH)
VHH: EVQLVESGGGLVQAGGSLRLSCAASGRTFTSYTMGWFRQAPGKEREFVAAIKWNGGSTYYADSVKGRFTISRDNAKNTVYLQMNSLKPEDTAVYYCAADGDPYFSPTDGIVWHAPHQSEYDYWGQGTLVTVSS

ELISA (OD): 2.27 OD
B36: 03D12R3 His-tagged VHH (VHH)
VHH: QVQLVESGGGLVQAGGSLRLSCAASGRTFSSYAMGWFRQAPGKEREFAAVITWNGGSTHYADSVKGRFTISRDNAKNTVYLQMNSLKPEDTAVYYCAADPMNSPYWGQGTQVTVSS

ELISA (OD): 1.82 OD
B37: 03D09R3 His-tagged VHH (VHH)
VHH: QVQLVESGGGLVQAGGSLRLSCAASGRTVSSVAMGWFRQAPGKEREFVATISWTGGSTYYADSVKGRFTISRDNAKNTAYLQMNSLKPEDTAVYYCAAGYPADPIALMTLRYEYDYWGQGTLVTVSS

ELISA (OD): 2.07 OD
B39: 03H01R3 His-tagged VHH (VHH)
VHH: B38 VHH with Q1E, D16G, L31I, A117T
